Results published in patent US20110143428A1 (Genentech, published 2011).

Target: T1, hVEGF-C (human, UniProt P49767)
T1 construct: unlabelled; also called human VEGF-C
T1 sequence (VEGF-C, looked up): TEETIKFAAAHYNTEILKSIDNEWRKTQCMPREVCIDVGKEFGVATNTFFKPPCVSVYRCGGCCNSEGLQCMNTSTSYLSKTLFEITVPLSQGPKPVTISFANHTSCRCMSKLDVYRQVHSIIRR
Test: phage competition ELISA: phage-displayed clone incubated with increasing soluble hVEGF-C, unbound phage captured on hVEGF-C coated plate, anti-M13-HRP, OD450

B1: VC1.1 (antibody, V domains shown)
VH: EVQLVESGGGLVQPGGSLRLSCAASGFTFSDSDIHWVRQAPGKGLEWVAWISPYSGYTDYADSVKGRFTISADTSKNTAYLQMNSLRAEDTAVYYCARLFKVIFDYWGQGTLVTVSS
VL: DIQMTQSPSSLSASVGDRVTITCRASQDVSTAVAWYQQKPGKAPKLLIYSASFLYSGVPSRFSGSGSGTDFTLTISSLQPEDFATYYCQQSYTTPPTFGQGTKVEIK
notes: also called clone VC1.1
Question: How did the IC50 turn out when B1 was run?
Answer: 0.0415 µM
